# Data: patent US20250283065A1, “TRUNCATED POLYPEPTIDES HAVING PROTEIN LIGASE ACTIVITY AND METHODS OF PRODUCTION THEREOF” (NANYANG TECHNOLOGICAL UNIVERSITY, priority 2022, published 2025)
# B1: OaAEP1b-C247A-Δ351: truncated OaAEP1b-C247A construct, residues 352-474 deleted, D351 as C-terminus; constitutively active peptide asparaginyl ligase (protein)
# chain: GTRWAVLIAGSKGYANYRHQAGVCHAYQILKRGGLKDENIVVFMYDDIAYNESNPRPGVIINSPHGSDVYAGVPKDYTGEEVNAKNFLAAILGNKSAITGGSGKVVDSGPNDHIFIYYTDHGAAGVIGMPSKPYLYADELNDALKKKHASGTYKSLVFYLEACESGSMFEGILPEDLNIYALTSTNTTESSWCYYCPAQENPPPPEYNVCLGDLFSVAWLEDSDVQNSWYETLNQQYHHVDKRISHASHATQYGNLKLGEEGLFVYMGSNPANDNYTSLDGNALTPSSIVVNQRDAD
# Experiments:
# [1] = Refolding from E. coli inclusion bodies (urea solubilization, dialysis); format: physicochemical; conditions: urea solubilization followed by refolding
# Protocol: (§1) Refolding and purification of constitutively active OaAEP1b-C247A-4351 using dialysis method: With all steps performed at 4° C., protein purification was achieved by resuspending thawed pellets in 30 mL of lysis buffer (100 mM Bis-Tris, pH 6.5, 500 mM NaCl, 10% (v/v) glycerol), sonicating the pellets followed by clearing the lysates by centrifugation at 58,000 g for 45 min. The insoluble fraction was resolubilized in 10 mL of resolubilizing buffer (50 mM Bis-Tris, pH 6.5, 150 mM NaCl, 1 mM EDTA, 50 mM Glycine, 8 M urea) overnight, with agitation. The concentration of denatured protein was determined using nanodrop and diluted to ˜2 mg mL-1 with buffer 1 (50 mM Bis-Tris, pH 6.5, 150 mM NaCl, 500 mM L-Arginine, 1 M urea, 0.25 mM L-Glutathione oxidized, 2.5 mM L-Glutathione reduced). The diluted denatured protein was dialyzed against buffer 2 (50 mM Bis-Tris, pH 6.5, 150 mM NaCl, 200 mM L-Arginine, 0.125 mM L-Glutathione oxidized, 1.25 mM L-Glutathione reduced) for 8 hr, followed by two buffer exchanges with buffer 3 (20 mM Bis-Tris, pH 6.5, 150 mM NaCl), for a duration of 8 hr for each buffer exchange. The refolded proteins were purified by affinity chromatography (HisTrap column, Cytiva), followed by size exclusion chromatography (HiLoad 16/600 Superdex 200, Cytiva). The proteins eluted as monomers during size exclusion purification. […]
# [2] = tested on: linear NH2-GLPVSTKPVATRNAL-COOH peptide substrate; assay: Peptide cyclization assay (MALDI-TOF MS); format: biochemical; conditions: 37° C., after twelve minutes of reaction time
# Target sequence (as listed by the source): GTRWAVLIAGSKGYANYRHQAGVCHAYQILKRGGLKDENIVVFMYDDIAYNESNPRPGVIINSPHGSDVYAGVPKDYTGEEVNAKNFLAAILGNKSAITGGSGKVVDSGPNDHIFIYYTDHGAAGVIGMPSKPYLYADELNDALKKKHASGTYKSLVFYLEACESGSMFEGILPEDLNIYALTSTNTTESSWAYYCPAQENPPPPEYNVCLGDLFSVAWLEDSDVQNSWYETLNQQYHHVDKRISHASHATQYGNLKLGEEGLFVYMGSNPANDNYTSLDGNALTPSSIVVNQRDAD
# Protocol: Peptide cyclization assay: The peptide used for cyclization assay was purchased commercially from GenScript, NH2-GLPVSTKPVATRNAL-COOH (SEQ ID NO:17). Cyclization assays were performed in 50 μl reaction mixtures containing 20 mM phosphate buffer, pH 6.5, ligases (40 nM) and peptide substrates (20 μM). Reaction was performed at 37° C., for 1 hour. The cyclization product was analyzed by MALDI-TOF MS (ABI 4800 MALDI TOF/TOF).
# To evaluate the cyclization activity of the purified OaAEP1b-C247A-Δ351, the enzyme was tested against a linear NH2-GLPVSTKPVATRNAL-COOH (SEQ ID NO:17) peptide substrate (labelled “LS”) (FIG. 6A). The cyclization reaction was performed at 37° C., and samples were collected every two minutes. MALDI-TOF MS was subsequently utilized to detect a cyclized product (labelled “CP”). Successful cyclization carried out by the active ligase of the LS with a mass of 1524 Da would result in CP with a mass of 1321 Da (FIG. 6A). After twelve minutes of reaction time, OaAEP1b-C247A-Δ351 had converted the majority of the linear substrate to the circularized product. No LS peak could be detected compared to a high CP peak detected in the MALDI-TOF mass spectra of the reaction mixture.
# [3] = Storage stability of the purified enzyme; format: physicochemical; conditions: −80° C.
# Protocol: as §1
# [4] = tested on: peptides PIE {EDANS} YNAL and GIK {DABSYL} SIP; assay: FRET ligation kinetics assay; format: biochemical
# Protocol: Kinetics assay: The kinetic properties of the peptide ligation of the constitutively active PAL were studied using a FRET assay. Two peptides synthesized by GenScript: PIE {EDANS} YNAL (SEQ ID NO:18) and GIK {DABSYL} SIP (SEQ ID NO:19) were mixed at a molar ratio of 1:3. Upon ligation, the peptide PIE {EDANS} YNGIK {DABSYL} SIP (SEQ ID NO: 20) is produced. 50 nM of PAL enzyme is mixed with various concentrations of the peptide mixture. The EDANS fluorescence signal was measured with an excitation wavelength of 336 nm and an emission wavelength of 490 nm. A reduction in EDANS fluorescence signal occurs upon ligation of the two peptides due to quenching by DABSYL. The variation in fluorescence signal for each substrate mixture concentration was measured after addition of the enzyme to initiate the reaction. The rate of decrease in fluorescence signal during the first 30 seconds after enzyme addition was plotted against the substrate concentration to obtain the Vmax, kcat and KM values for each enzyme.
# Next, using a FRET ligation assay, the ligase activity of the truncated OaAEP1b-C247A-Δ351 was compared with its acid-activated zymogen counterpart. Briefly, 50 nM of either enzyme was added to a mixture of two peptides A: PIE (EDANS) YNAL (SEQ ID NO:18) and B: GIK (DABSYL) SIP (SEQ ID NO:19). These two peptides were mixed in a A:B molar ratio of 1:3. Upon ligation, the fluorescence signal emission of the EDANS moiety of A (λem=490 nm) becomes quenched by the DABSYL moiety of B. (FIG. 7A). This assay the ligation rate to be followed between both peptides in real-time, giving access to the kinetic parameters of the truncated enzyme.
# [5] = 50 nM enzyme, peptides A:B molar ratio 1:3
# Sequence of peptides PIE {EDANS} YNAL and GIK {DABSYL} SIP (as listed by the source): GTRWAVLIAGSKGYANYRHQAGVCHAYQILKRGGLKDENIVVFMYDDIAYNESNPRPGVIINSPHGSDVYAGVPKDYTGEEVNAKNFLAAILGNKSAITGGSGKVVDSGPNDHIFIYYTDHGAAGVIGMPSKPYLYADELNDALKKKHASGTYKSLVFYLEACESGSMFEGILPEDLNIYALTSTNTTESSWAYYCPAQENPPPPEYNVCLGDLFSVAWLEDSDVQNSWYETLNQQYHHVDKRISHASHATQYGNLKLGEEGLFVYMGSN
molecule,measurement,setting,value
B1,behaviour during refolding procedure,[1],could be refolded
same,cyclization of linear substrate to cyclized product,[2],complete cyclization reaction
same,storage stability,[3],up to two years
same,Km,[4]; [5],8.16 µM
same,Vmax,[4]; [5],6.40 RFU/see
same,ligation activity relative to acid-activated zymogen counterpart (fold less),[4]; FRET ligation assay,about 2 fold
